# US20040266686A1 (Regeneron, published 2004)
# B1: Flt1(1-3)-Fc (Fc fusion, human, UniProt P17948 27-331, looked up, not shown: a dimerising Fc or GST)
# chain: SKLKDPELSLKGTQHIMQAGQTLHLQCRGEAAHKWSLPEMVSKESERLSITKSACGRNGKQFCSTLTLNTAQANHTGFYSCKYLAVPTSKKKETESAIYIFISDTGRPFVEMYSEIPEIIHMTEGRELVIPCRVTSPNITVTLKKFPLDTLIPDGKRIIWDSRKGFIISNATYKEIGLLTCEATVNGHLYKTNYLTHRQTNTIIDVQISTPRPVKLLRGHTLVLNCTATTPLNTRVQMTWSYPDEKNKRASVRRRIDQSNSHANIFYSVLTIDKMQNKDKGLYTCRVRSGPSFKSVNTSVHIYDK
# B2: Flt1D2.VEGFR3D3.Fc?C1(a) (Fc fusion, not shown: a dimerising Fc or GST)
# chain: GRPFVEMYSEIPEIIHMTEGRELVIPCRVTSPNITVTLKKFPLDTLIPDGKRIIWDSRKGFIISNATYKEIGLLTCEATVNGHLYKTNYLTHRQTNTIIDIQLLPRKSLELLVGEKLVLNCTVWAEFNSGVTFDWDYPGKQAERGKWVPERRSQQTHTELSSILTIHNVSQHDLGSYVCKANNGIQRFRESTEVIVHENGPG
# B3: Flt1D2.Flk1D3.Fc?C1(a) (Fc fusion, human)
# chain: GRPFVEMYSEIPEIIHMTEGRELVIPCRVTSPNITVTLKKFPLDTLIPDGKRIIWDSRKGFIISNATYKEIGLLTCEATVNGHLYKTNYLTHRQTNTIIDVVLSPSHGIELSVGEKLVLNCTARTELNVGIDFNWEYPSSKHQHKKLVNRDLKTQSGSEMKKFLSTLTIDGVTRSDQGLYTCAASSGLMTKKNSTFVRVHEKGPG
# modifications: N-linked glycosylation: complete at Asn33, Asn193, Asn282; partial at Asn65 and Asn120 (peptide mapping numbering)
# notes: domain: Ig domain 2;domain: Ig domain 3; Made in CHO cells, transiently or stably; also called R1R2; not shown: Fc?C1(a) portion
# Legend:
# [1] = biological target: T1, human VEGF165 (human, UniProt P15692-4 27-191); test: cell-based or functional assay
# T1 sequence (P15692 other isoform, or with tags, fused parts or gaps limits assumed): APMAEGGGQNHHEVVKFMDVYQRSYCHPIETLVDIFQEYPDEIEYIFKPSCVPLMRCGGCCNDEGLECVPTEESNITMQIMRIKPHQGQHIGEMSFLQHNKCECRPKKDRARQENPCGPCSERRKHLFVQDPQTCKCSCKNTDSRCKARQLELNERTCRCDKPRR
# [2] = biological target: T1, human VEGF165; test: size exclusion chromatography (Superose 6), complex purified, dissociated in 6M guanidine hydrochloride, components quantified
# Experimental: (b) Size Exclusion Chromatography. […] The receptor-ligand complex was then incubated in a buffer containing 6M guanidine hydrochloride in order to dissociate it into its component proteins.
# [3] = biological target: T1, human VEGF165; test: size exclusion chromatography under dissociative conditions (6M GuHCl), standard curves
# Experimental: (a) Size Exclusion Chromatography (SEC) under native conditions. […] The sample was eluted with the same buffer at flow rate 40 μl/min. at room temperature. […] Fractions eluted between 1.1 and 1.2 ml were combined and guanidinium hydrochloride (GuHCl) was added to a final concentration 4.5M to dissociate the complex.
# (b) Size Exclusion Chromatography (SEC) under dissociative conditions. To separate the components of the receptor-ligand complex and to determine their molar ratio, 50 μl of dissociated complex as described supra was loaded onto a Superose 12 PC 3.2/30 equilibrated in 6M GuHCl and eluted with the same solution at a flow rate 40 μl/min. at room temperature.
# The stoichiometry of the receptor-ligand complex was determined from the peak area or the peak height of the components. […] To obtain a standard curve, four different concentrations (0.04 mg/ml−0.3 mg/ml) of either component were injected onto a Pharmacia Superose 12 PC 3.2/30 column equilibrated in 6M guanidinium chloride and eluted with the same solution at flow rate 40 μl/min. at room temperature. The standard curve was obtained by plotting peak area or peak height vs protein concentration.
# [4] = biological target: T1, human VEGF165; test: size exclusion chromatography with on-line light scattering
# Experimental: (a) Size Exclusion Chromatography (SEC) with On-Line Light Scattering. Size exclusion chromatography column with a MiniDawn on-line light scattering detector (Wyatt Technology, Santa Barbara, Calif.) and refractive index (R1) detectors (Shimadzu, Kyoto, Japan) was used to determine the molecular weight (MW) of the receptor-ligand complex. Samples were injected onto a Superose 12 HR 10/30 column (Pharmacia) equilibrated in PBS buffer and eluted with the same buffer at flow rate 0.5 ml/min. at room temperature. […] MW was calculated from LS and R1 signals. The same procedure was used to determine MW of the individual components of the receptor-ligand complex.
Binder,"half maximal dose, VEGF165-induced cell proliferation (MG87 cells, MTS) [1]",ratio of VEGF165 to receptor in the complex [2],molar ratio of VEGF165:receptor (from the peak area) [3],molar ratio of VEGF165:receptor (from the peak height) [3],stoichiometry of the complex [4]
B1,2 nM,,,,
B2,2 nM,,,,
B3,0.8 nM,1 VEGF165:receptor,1.16 mol/mol,1.1 mol/mol,1 receptor:VEGF165
